Tested on: MS2 coat protein
Test: apparent KD of MS2 coat protein; designed switch direction (-1 OFF switch, 1 ON switch): -1; higher = weaker reporter binding
Summary of the method: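 Designed RNA switches were transcribed on Illumina chips by stalled E. coli RNA polymerase and titrated with SNAP-549-labelled MS2 coat protein from 0.7 or 1.5 nM, doubling to 3 µM. Step length ran from 0.8–1.5 h at the lowest concentration to 10–20 min at the highest. The apparent KD is the median over clusters for each design, from curve-fitted normalised cluster fluorescence.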

[1] = input ligand: microRNA oligo, concentration not stated
[2] = Eterna round: R95, input ligand: microRNA oligo, concentration not stated
[3] = Eterna round: R95, input ligand: FMN 200 uM
[4] = Eterna round: R95, input ligand: none

Row | Sequence | apparent KD of MS2 coat protein (input ligand: FMN 200 uM) | apparent KD of MS2 coat protein [1] | apparent KD of MS2 coat protein (input ligand: none) | apparent KD of MS2 coat protein [2] | apparent KD of MS2 coat protein [3] | apparent KD of MS2 coat protein [4]
1 | UGAUCUAGCGGAGGAUAUACAUGAGGAUCACCCAUGUAGUAGUCUGUACCGUAGUGCAGACUUGUGUAGAAGGCCGCUAGAUCU [JL ENG2 3.61] (Eterna round: R96, puzzle: Exclusion NG 2) | 0.0158 µM | 0.0108 µM | 0.0141 µM |  |  | 
2 | GAUAGAGCAGGAUAUCGAGAUCCGCACAUGAGGAUCACCCAUGUUCGGUCGAAAGACCGACGAGAAGGGCUGUAUC [Omei Ex5 E7] (Eterna round: R97, puzzle: Exclusion 5) | 0.838 µM |  | 4.19 µM |  |  | 
3 | ACAUGAGGAUCACCCAUGUCUGGCUGGUCCGUCUCGGCUGUCGAGGAUAUGGCUCGGUGUCCGCGCUAGAAGGCGGGAGCUGGA [Aenatbe mod 78] (Eterna round: R96, puzzle: Exclusion NG 3) | 0.193 µM | 0.043 µM | 0.0682 µM |  |  | 
4 | AAGUAUAGAGGAUAUAGUGAGUACUACAUGAGGAUCACCCAUGUUCUUCGUUACGUAUUUCUAGAAGGCUGAUAAA [EX-5 Malc#23] (puzzle: Exclusion 5) |  |  |  | 0.106 µM |  | 
5 | UUGAUGUCAUCAGGAUAUAGUAUUUAAGACAUAUCUUCUUUCUUACAUGAGGAUCACCCAUGUCGCUAGAAGGGAUGAAUGAUU [JR_ExcNG2_Sub086] (Eterna round: R96, puzzle: Exclusion NG 2) |  | 0.0134 µM |  |  |  | 
6 | UCACAGUGAGGAUAUUUAAAAUCGGAACCAGUUACCCGGAUGAAGAAGGCACAUGAGGAUCACCCAUGUGGACG [Eternabot (L2) Solution 14] (Eterna round: R97, puzzle: Exclusion 4) | 0.0167 µM |  | 0.0153 µM |  |  | 
7 | GCAGAAUGAGUUAGGAUAUGAUGAUUUUUCGGAAAUCAGAAGGAACUUGAGGAUCACCCAAGUAAAGAUAGGGU [JR_BMEx4_Sub064] (Eterna round: R97, puzzle: Brourd's mod of Exclusion 4) | 0.358 µM |  | 0.236 µM |  |  | 
8 | GCCUUAUCCGUCAGGAUAUACAGCCGCUCCUUGUUGUAGAAGGGACAUGAGGAUCACCCAUGUACGUACCAUUG [alecazam5] (Eterna round: R97, puzzle: Brourd's mod of Exclusion 4) | 0.0254 µM |  | 0.0247 µM |  |  | 
9 | AUAUGUGCGAGAGGAUAUCGUGUACAAAGUACACGAGAAGGCUUCACAUGAGGAUCACCCAUGUACCGAGGUGAAACACCUUGA [Omei Exc(NG)1 Bv5] (Eterna round: R96, puzzle: Exclusion NG 1) | 0.357 µM | 0.156 µM | 0.234 µM |  |  | 
10 | ACAUGAGGAUCACCCAUGUCAGGUUGGUUCUCUCCGGCUGUUGAGGAUAUAGUCCGGUAUCCGCGCUAGAAGGUGAGGGCUGGC [Aenatbe mod 14] (Eterna round: R96, puzzle: Exclusion NG 3) | 0.0196 µM | 0.0201 µM | 0.0251 µM |  |  | 
11 | CUUUUGUGAGGAUAUUAGUAGUUUAUAAUUAAAAUUAUUACUGAGAAGGCACAUGAGGAUCACCCAUGUACCAC [JR_Ex4_Sub030] (Eterna round: R97, puzzle: Exclusion 4) | 0.0928 µM |  | 0.0218 µM |  |  | 
12 | CUUGUUUAUGUAGGAUAUGCCUGGCGUGCCUUUGCAGAAGGACAUGAGGAUCACCCAUGUAACAUGAGGCUCACCCUUGUCGCC [salish99_ExNG1_r04_116] (Eterna round: R96, puzzle: Exclusion NG 1) | 0.146 µM | 0.0901 µM | 0.114 µM |  |  | 
13 | CUGGUCCGAGGAUAUAUUAUGUGAUACAUGAGGAUCACCCAUGUAAUAUGAUGGAAGUAAAUAGAAGGCGGACUAG [Mat - Exclusion 5 - JL mod - D46] (puzzle: Exclusion 5) |  |  |  | 0.0558 µM | 0.0425 µM | 0.0581 µM
14 | UCACGGGACUGAGGAUAUACAUCAACCAUGGUUGUAGAAGGCAGAAGGUUGGAUCAUACACUAAACAUGAGGAUCACCCAUGUU [JR_ExcNG1_Sub029] (Eterna round: R96, puzzle: Exclusion NG 1) | 0.0177 µM | 0.0168 µM | 0.0216 µM |  |  | 
15 | AAUAACAGAGGAUAUACUAUUUUAUGUGUUUAUUGUUUUGAACAUGAGGAUCACCCAUGUAGAAGGCUGAGUAA [JMF 38] (puzzle: Exclusion 2) |  |  |  | 0.0275 µM |  | 
16 | CUAGUAUAUCAGGAUAUGAUAGUGUAUAGUAUAUCAGAAGGGAUGACAUGAGGAUCACCCAUGUUAAGGGAUGA [JR_Ex6_Sub050] (Eterna round: R97, puzzle: Exclusion 6) | 0.0524 µM |  | 0.0461 µM |  |  | 
17 | GGCCCGGGAGGAUAUACAUGAGGAUCACCCAUGUAGCCCGGCCCGAUCGGGCCGGGCUGUAGAAGGCCCGGGCC [-49.2, -46.3 kcal, 19% A] (Eterna round: R97, puzzle: Exclusion 3) | 0.0169 µM |  | 0.013 µM |  |  | 

Row | Sequence | apparent KD of MS2 coat protein (input ligand: FMN 200 uM) | apparent KD of MS2 coat protein [1] | apparent KD of MS2 coat protein (input ligand: none) | apparent KD of MS2 coat protein [2] | apparent KD of MS2 coat protein [3] | apparent KD of MS2 coat protein [4]
18 | CUAGAUCUUCGGAUCUAGUACAUGAGGAUCACCCAUGUGACGAGUUGAUCCUCAAACAAGCUUUUUGCUCGUCUUAU [Sensor v3 - Turn-off variant 1 - 17] (puzzle: Sensor v3, turn-off variant 1) |  |  |  | 0.016 µM | 0.0199 µM | 0.0221 µM
19 | GGCCCGGGAGGAUAUACAAUGGGCUCGGGAAAUCGGGCUCGACAUGAGGAUCACCCAUGUAGAAGGCCCGGGCC [-36.5, -34.6 kcal A 24%, 4,0] (Eterna round: R97, puzzle: Exclusion 2) | 0.034 µM |  | 0.0218 µM |  |  | 
20 | UAAUAAAGUGUGAGGAUAUGCUGGUCGAUAGAUCAGCAGAAGGCACAUGAGGAUCACCCAUGUAAUAUAUUUUA [Mat - Exclusion 4 - JL Mod - D46] (Eterna round: R96, puzzle: Brourd's mod of Exclusion 4) | 0.238 µM | 0.0406 µM | 0.0561 µM |  |  | 
21 | CGAUGCUCGAGUCCACAUGAGGAUCACCCAUGUCGAGUUAGCGAGGAUAUCGGAGACACAUAGUAUGAGAAGGCGCGAACCUGA [Ex NG3 #20] (Eterna round: R96, puzzle: Exclusion NG 3) | 0.01 µM | 0.0113 µM | 0.0136 µM |  |  | 
22 | AGAUGCUCAAGUCGACAUGAGGAUCACCCAUGUACAGUUAAUGAGGAUAUCCGAGAUAAAUAAUAGGAGAAGGCGUGAUCAUGA [Ex NG3 #7] (Eterna round: R96, puzzle: Exclusion NG 3) | 0.284 µM | 0.383 µM | 0.458 µM |  |  | 
23 | UUUUUGUGAGGAUAUGCAAUAUCUUCUAUUUAUUAUUAAUUGCAGAAGGCACAUGAGGAUCACCCAUGUAUUUU [Ex4 - 3 - 36] (puzzle: Exclusion 4) |  |  |  | 0.0205 µM |  | 
24 | ACGUUUUUUGAGGAUAUGCGACGUUCCUUCGUCGUAGAAGGCGAUACAUGAGGAUCACCCAUGUUUAUGGGCAU [LRO-Ex6-17] (puzzle: Exclusion 6) |  |  |  | 0.0864 µM |  | 
25 | ACAAGCUUUUUGUUCGUCUUAUACACUCCUAAUAAGACAACAUGAGGAUCACCCAUGUAACAAACAAGAACUCAUGU [Sesor Array 6 - Jieux - Sensor v3, turn-off variant 2] (puzzle: Sensor v3, turn-off variant 2) |  |  |  | 0.359 µM | 0.0551 µM | 0.0725 µM
26 | UAUUAGCAAGUGAGAUCCCACAUGAGGAUCACCCAUGUGCUCGUCUUAUAACGUACUGUGACGAAAGUCACGGUACG [Sensor-V1 #81] (Eterna round: R97, puzzle: Sensor, turn-off variant 1) | 0.0529 µM |  | 0.0472 µM |  |  | 
27 | CCACGACAUGAGGAUCACCCAUGUGAGGAUAUGGCCUGAAAAGCGUGAGCAGUUUGUAUCAGAAGGCGCGUGGG [salish99_ex1_r4_065] (Eterna round: R97, puzzle: Exclusion 1) | 0.0791 µM |  | 0.0538 µM |  |  | 
28 | CAGGAUAGAGGAUAUACAUAGAUACAGAUUCGUGUGAUCCUACAUGAGGAUCACCCAUGUAGAAGGCUAUCCUG [Fiskers Ex 2 - 23] (puzzle: Exclusion 2) |  |  |  | 0.21 µM |  | 
29 | AUAUCACAUGAGGAUCACCCAUGUCAGGAUAUGAUACUAUGUACUUCGGUACAUAGUAUCAGAAGGGAUAUGAA [Ex1-3: 66] (puzzle: Exclusion 1) |  |  |  | 0.0454 µM |  | 
30 | UUAAAUCAUGUAGGAUAUGCGUGGCGAAGCUAUGCAGAAGGACAUGAGGAUCACCCAUGUUCUAGCGUCUGCGUACAGAUGCGG [JL JSci mod] (Eterna round: R96, puzzle: Exclusion NG 1) | 0.334 µM | 0.022 µM | 0.0298 µM |  |  | 
31 | GGAUCACAUGUUAGGAUAUGCUGGUCCUUGGAUCAGCAGAAGGGACAUGAGGAUCACCCAUGUCAUGAAGAUCC [Eli bmx4 4.81] (Eterna round: R97, puzzle: Brourd's mod of Exclusion 4) | 0.0528 µM |  | 0.0241 µM |  |  | 
32 | UCUCGUAGGCAAGGAUAUCCUACAUUGUUCUGGCCCGGGCAUGCUACAUGAGGAUCACCCAUGUGGGAGAAGGUGCGCCACUGC [Design 27] (Eterna round: R96, puzzle: Exclusion NG 2) | 0.0524 µM | 0.0397 µM | 0.0362 µM |  |  | 
33 | UUUAUGUCAGGAUAUGAGUAGUAGAACAAUAGUACUACUACUCAGAAGGGACAUGAGGAUCACCCAUGUUCCUC [Fiskers Ex 4 Super stable 44 mod 20] (puzzle: Exclusion 4) |  |  |  | 0.0167 µM |  | 
34 | CAGGGUAGAGGAUAUACGUAGGUACAGAUCUGUGUGAUCCUACAUGAGGAUCACCCAUGUAGAAGGCUAGCCUG [LRO-Excl2-07] (puzzle: Exclusion 2) |  |  |  | 0.305 µM |  | 
